Where a chain is given by its changes, count along the chain named.
What was measured:
hCCR8 (K35A) = biological target: T1, hCCR8 (K35A) (Homo sapiens, UniProt P51685, K35A); test: Antigen-binding test, human CCR8 point mutant; design: key: an antibody having significantly reduced binding activity was indicated as A; an antibody having binding activity of the detection limit or less was indicated as x; The blank column means that it exhibits the same binding activity as the wild-type human CCR8 (hCCR8); details: in comparison to wild-type hCCR8
T1 construct: expressed in transfected cells; host or cells: Expi293 cells (method similar to that for the wild type)
Description: (§1) Further, to analyze in more detail the N-terminal region that is an epitope region common to all clones having strong neutralization, the human CCR8 point mutants shown in Table 2 were produced. […] It is thus considered that the neutralizing antibodies recognize Y at position 17. In addition, although clone No. 8F7 is only shown in Table 2, plural other neutralizing antibodies had reduced binding activity to the mutant in which I at position 20 of human CCR8 is substituted with A (hCCR8 (I20A)). It is thus considered that some neutralizing antibodies have stereo-structural recognition to bind to isoleucine at position 20.

human CCR4 = biological target: T2, human CCR4 (Homo sapiens, UniProt P51679); test: Antigen-binding test on transiently expressing Expi293 cells; design: key: an antibody having significantly reduced binding activity was indicated as A; an antibody having binding activity of the detection limit or less was indicated as x; The blank column means that it exhibits the same binding activity as the wild-type human CCR8 (hCCR8); details: 5, 0.5 and 0.05 ug/mL, in comparison to wild-type hCCR8
T2 construct: expressed in transfected cells; host or cells: Expi293 cells, pcDNA 3.4 vector, transient
T2 sequence (P51679 1-360): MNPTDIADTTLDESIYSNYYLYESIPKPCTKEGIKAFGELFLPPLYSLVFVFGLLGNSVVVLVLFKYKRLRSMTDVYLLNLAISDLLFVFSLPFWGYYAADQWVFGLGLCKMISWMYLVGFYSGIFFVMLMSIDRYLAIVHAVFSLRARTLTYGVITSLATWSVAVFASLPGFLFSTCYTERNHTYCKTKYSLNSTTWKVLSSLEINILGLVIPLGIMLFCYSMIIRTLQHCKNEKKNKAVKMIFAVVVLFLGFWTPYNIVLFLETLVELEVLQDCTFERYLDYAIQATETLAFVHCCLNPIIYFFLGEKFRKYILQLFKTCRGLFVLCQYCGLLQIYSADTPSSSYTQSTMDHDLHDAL
Description: (§2) The gene encoding the full length of human CCR8 (UniProtKB/Swiss-Prot: P51685, SEQ ID NO: 1), the gene encoding the full length of human CCR4 (UniProtKB/Swiss-Prot: P51679, SEQ ID NO: 48) and the gene encoding the full length of mouse CCR8 (UniProtKB/Swiss-Prot: P56484, SEQ ID NO: 39) were cloned into pcDNA 3.4 vectors, respectively. These vectors were used for transfection to produce Expi293 cells transiently expressing human CCR8, human CCR4, or mouse CCR8. These cells were reacted with a dilution series of the purified antibodies of each clone, and the binding properties thereof were evaluated by detection with Alexa488-labeled anti-mouse IgG antibody (manufactured by Thermo Fisher Scientific). As a result, every antibody bound to human CCR8, but not to human CCR4 and mouse CCR8 at all.

mouse CCR8 = biological target: T3, mouse CCR8 (Mus musculus, UniProt P56484); test: as above; design: key: an antibody having significantly reduced binding activity was indicated as A; an antibody having binding activity of the detection limit or less was indicated as x; The blank column means that it exhibits the same binding activity as the wild-type human CCR8 (hCCR8); details: 5, 0.5 and 0.05 ug/mL, in comparison to wild-type hCCR8
T3 construct: expressed in transfected cells; host or cells: Expi293 cells, pcDNA 3.4 vector, transient
T3 sequence (P56484 1-353): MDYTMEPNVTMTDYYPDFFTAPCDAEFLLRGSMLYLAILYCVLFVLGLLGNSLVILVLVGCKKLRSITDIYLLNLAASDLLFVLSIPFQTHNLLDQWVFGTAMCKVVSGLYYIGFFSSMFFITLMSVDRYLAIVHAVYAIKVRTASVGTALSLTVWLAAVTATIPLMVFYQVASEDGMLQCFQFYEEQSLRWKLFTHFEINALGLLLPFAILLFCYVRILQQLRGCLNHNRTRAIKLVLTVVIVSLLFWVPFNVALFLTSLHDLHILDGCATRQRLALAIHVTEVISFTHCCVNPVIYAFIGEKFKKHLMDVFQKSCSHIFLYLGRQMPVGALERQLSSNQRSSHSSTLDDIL
Description: as §2

hCCR8 (L5A) = biological target: T4, hCCR8 (L5A) (Homo sapiens, UniProt P51685, L5A); test: Antigen-binding test, human CCR8 point mutant; details: in comparison to wild-type hCCR8
T4 construct: expressed in transfected cells; host or cells: Expi293 cells (method similar to that for the wild type)

loop1 hCCR4-hCCR8 = biological target: T5, loop1 hCCR4-hCCR8 (Homo sapiens, UniProt P51685, L95A/L96A/M105L/T103L/V104G); test: Antigen-binding test, chimera; details: 5, 0.5 and 0.05 ug/mL, in comparison to wild-type hCCR8
T5 construct: expressed in transfected cells; host or cells: Expi293 cells (method similar to that for the wild type)

hCCR8 (T11A) = biological target: T6, hCCR8 (T11A) (Homo sapiens, UniProt P51685, T11A); test: Antigen-binding test, human CCR8 point mutant; details: in comparison to wild-type hCCR8
T6 construct: expressed in transfected cells; host or cells: Expi293 cells (method similar to that for the wild type)
Description: as §1

loop2 hCCR4-hCCR8 = biological target: T7, loop2 hCCR4-hCCR8 (Homo sapiens, UniProt P51685, A175Y/D178R/F186K/F197L/F200L/G179N/I196V/K193T/K201E/L181T/L192T/M202I/N188S/N199S/Q173T/Q182Y/Q189L/Q190N/S176T/S185T/T191S/T198S/V174C/V180H/Y172S/Y184K); test: Antigen-binding test, chimera; details: 5, 0.5 and 0.05 ug/mL, in comparison to wild-type hCCR8
T7 construct: expressed in transfected cells; host or cells: Expi293 cells (method similar to that for the wild type)

hCCR8 (I20A) = biological target: T8, hCCR8 (I20A) (Homo sapiens, UniProt P51685, I20A); test: Antigen-binding test, human CCR8 point mutant; details: in comparison to wild-type hCCR8
T8 construct: expressed in transfected cells; host or cells: Expi293 cells (method similar to that for the wild type)
Description: as §1

hCCR8 (I30A) = biological target: T9, hCCR8 (I30A) (Homo sapiens, UniProt P51685, I30A); test: Antigen-binding test, human CCR8 point mutant; details: in comparison to wild-type hCCR8
T9 construct: expressed in transfected cells; host or cells: Expi293 cells (method similar to that for the wild type)
Description: as §1

B1: 1H4: mouse anti-human CCR8 neutralizing antibody; light chain SEQ ID NO: 29, heavy chain SEQ ID NO: 30 (antibody, V domains shown)
VH: EVQLVESGGRLVQPKGSLKLSCAASGFTFNTYAMYWIRQAPGKGLEWVARIRSKSNNYATYYADSVKDRFTISRDDSQSMLYLQMNNLKTEDTAMYYCVRARFYYSDYGYAMDYWGQGTSVTVSS
VL: DIVMTQAAPSVPVTPGESVSISCRSSKSLLHSNGNTYLYWFLQRPGQSPQLLIYRMSNLASGVPDRFSASGSGTAFTLRISRVEAEDVGVYYCMQHLEYPLTFGAGTKLELKR
modifications: 1H4 VH; 1H4 VL
binding activity, hCCR8 (K35A) (hCCR8 (K35A)): x
binding activity, hCCR4 (human CCR4): x
binding activity, mCCR8 (mouse CCR8): x
binding activity, hCCR8 (L5A) (hCCR8 (L5A)): Δ
binding activity, loop1 hCCR4-hCCR8 (loop1 hCCR4-hCCR8): Δ
binding activity, hCCR8 (T11A) (hCCR8 (T11A)): Δ
binding activity, loop2 hCCR4-hCCR8 (loop2 hCCR4-hCCR8): Δ

B2: 8F7: mouse anti-human CCR8 neutralizing antibody; light chain SEQ ID NO: 33, heavy chain SEQ ID NO: 34 (antibody, V domains shown)
VH: EVQLVESGGRLVQPKRSLKLSCAASGFTFNPYAMYWIRQAPGQGLEWVARIRSKSNNYATYYADSVKDRFTISRDDSQSMLYLQMNNLKTEDTAMYYCVRGHQGTMDYWGQGTSVTVSS
VL: B1 VL with I53T, A69G, L101F, A105G, L111I
modifications: 8F7 VH; 8F7 VL
binding activity, hCCR8 (K35A) (hCCR8 (K35A)): Δ
binding activity, hCCR4 (human CCR4): x
binding activity, mCCR8 (mouse CCR8): x
binding activity, hCCR8 (I20A) (hCCR8 (I20A)): Δ
binding activity, hCCR8 (I30A) (hCCR8 (I30A)): Δ
binding activity, loop2 hCCR4-hCCR8 (loop2 hCCR4-hCCR8): Δ
